# Earlier results, collected in publication PMC4858162.
# Molecular target: DNA polymerase III beta sliding clamp (Escherichia coli) (UniProt P0A988)
substance,measurement,value
DNA polymerase III beta sliding clamp (from UniProt P0A988),Kd,< 0.06 nM
